Key:
[1] = target: T1, human complement protein C6 (human, UniProt P13671 22-934); experiment: C6-binding ELISA, A650 nm; sample 'PBS, non-incubated' (kept at 4 C)
T1 construct: also called human C6; C6 antigen
Procedure: (§1) For the serum stability assessment, samples of the purified candidate antibodies are normally incubated in mouse, human and cynomolgus serum at 37 C for 28 days and then tested in an antigen-binding ELISA. Since the anti-C6 antibodies are expected to bind to both human and cynomolgus C6 but not mouse C6, we anticipated that incubating in human or cynomolgus sera would reduce ELISA binding due to occupation of the antibody binding sites by C6 protein from the sera. Therefore, the chimeric and humanized antibodies were tested with human and mouse sera and with human sera from which the C6 protein has been depleted. The C6-binding ELISA was then used to compare the binding abilities of the C601 antibodies that had been incubated in the 3 different sera to antibody samples that were incubated in PBS at 37 C or kept at 4 C (non-incubated).
(§2) The Uncle instrument (Unchained Labs) was used to monitor unfolding via intrinsic fluorescence and aggregation by static light scattering across a temperature gradient to obtain melting temperatures (Tₘ). […] Isoelectric points were determined by capillary isoelectric focusing using a PA800+ (Beckman Coulter). […]

[2] = target: T1, human complement protein C6; experiment: C6-binding ELISA, A650 nm; sample 'C6-depleted human serum' (28 days at 37 C)
Procedure: as §1, with “The C6-binding ELISA was then used to compare the binding abilities of the C601 antibodies that had been incubated in the 3 different sera to antibody samples that were incubated in PBS at 37 C or kept at 4 C (non-incubated).” left out
Binding ELISAs used Nunc Maxisorp 384-well plates, wells coated with C6, C5b,6 complex or C5 (Complement Technology Inc, TX) and goat anti-human IgG (Fab specific) peroxidase secondary antibodies (Sigma-Aldrich, A0293) for detection. For the thermal stability assay, IgG supernatants were diluted to their EC₈₀ concentration, incubated at different temperatures for 10 min and C6 binding measured by ELISA with the binding signal plotted against temperature. Kinetics of C6 binding were measured by capturing antibodies from supernatant samples using Protein G biosensors and performing a 20 min association step with 2.5 nM C6 and a 20 min dissociation step using the Octet RED96. […]

[3] = target: T1, human complement protein C6; experiment: BLI (Octet), antibody on Protein G biosensors, 1:1 fit, experiment 1
[4] = target: T1, human complement protein C6; experiment: ELISA, expression supernatant, anti-human kappa detection
Procedure: (§3) The chimeric molecules, MoC601 HuG4K and MoC601 HuG1KFab, were tested for C6 binding in the form of expression supernatants. In this experiment, the human molecules were detected with an HRP-conjugated goat anti-human kappa chain reagent, which gave relative low signals. However, the binding of both chimeric molecules to C6 was confirmed. The EC₅₀ value for MoC601 HuG4K (0.43 nM) was higher than that of the mouse antibody (0.07 nM), though this was lower than in previous experiments. A further experiment was performed to find a more suitable anti-human antibody detection reagent. MoC601 HuG4K from expression supernatant was detected with three different secondary antibodies. Both anti-human IgG Fc-specific and Fab-specific detection gave higher signals than the anti-kappa chain reagent but the Fc-specific detection yielded a very low EC₅₀ (0.03 nM).

[5] = target: T1, human complement protein C6; experiment: C6-binding ELISA, A650 nm; sample 'PBS' (28 days at 37 C)
Procedure: as §1, §2

[6] = target: T1, human complement protein C6; experiment: ELISA, expression supernatant, anti-human IgG Fc-specific detection
Procedure: as §3

[7] = target: human complement protein C5 (human, UniProt P01031 19-673; P01031 678-1676); experiment: ELISA, C5-coated wells
[8] = target: T1, human complement protein C6; experiment: ELISA, C6-coated wells, large-scale purified antibody
[9] = target: T1, human complement protein C6; experiment: C6-binding ELISA, A650 nm; sample 'PBS, non-incubated' (kept at 4 C); remark: listed apart in the source
Procedure: The C6-binding ELISA was then used to compare the binding abilities of the C601 antibodies that had been incubated in the 3 different sera to antibody samples that were incubated in PBS at 37 C or kept at 4 C (non-incubated).
Binding ELISAs used Nunc Maxisorp 384-well plates, wells coated with C6, C5b,6 complex or C5 (Complement Technology Inc, TX) and goat anti-human IgG (Fab specific) peroxidase secondary antibodies (Sigma-Aldrich, A0293) for detection. For the thermal stability assay, IgG supernatants were diluted to their EC₈₀ concentration, incubated at different temperatures for 10 min and C6 binding measured by ELISA with the binding signal plotted against temperature. Kinetics of C6 binding were measured by capturing antibodies from supernatant samples using Protein G biosensors and performing a 20 min association step with 2.5 nM C6 and a 20 min dissociation step using the Octet RED96. […] Binding of C6 measured using a three-fold concentration series of C6 from 0.03 nM-25 nM and data were fitted using a 1:1 model in two independent experiments.
The Uncle instrument (Unchained Labs) was used to monitor unfolding via intrinsic fluorescence and aggregation by static light scattering across a temperature gradient to obtain melting temperatures (Tₘ). […] Isoelectric points were determined by capillary isoelectric focusing using a PA800+ (Beckman Coulter).

T1 sequence (P13671 22-934 limits assumed): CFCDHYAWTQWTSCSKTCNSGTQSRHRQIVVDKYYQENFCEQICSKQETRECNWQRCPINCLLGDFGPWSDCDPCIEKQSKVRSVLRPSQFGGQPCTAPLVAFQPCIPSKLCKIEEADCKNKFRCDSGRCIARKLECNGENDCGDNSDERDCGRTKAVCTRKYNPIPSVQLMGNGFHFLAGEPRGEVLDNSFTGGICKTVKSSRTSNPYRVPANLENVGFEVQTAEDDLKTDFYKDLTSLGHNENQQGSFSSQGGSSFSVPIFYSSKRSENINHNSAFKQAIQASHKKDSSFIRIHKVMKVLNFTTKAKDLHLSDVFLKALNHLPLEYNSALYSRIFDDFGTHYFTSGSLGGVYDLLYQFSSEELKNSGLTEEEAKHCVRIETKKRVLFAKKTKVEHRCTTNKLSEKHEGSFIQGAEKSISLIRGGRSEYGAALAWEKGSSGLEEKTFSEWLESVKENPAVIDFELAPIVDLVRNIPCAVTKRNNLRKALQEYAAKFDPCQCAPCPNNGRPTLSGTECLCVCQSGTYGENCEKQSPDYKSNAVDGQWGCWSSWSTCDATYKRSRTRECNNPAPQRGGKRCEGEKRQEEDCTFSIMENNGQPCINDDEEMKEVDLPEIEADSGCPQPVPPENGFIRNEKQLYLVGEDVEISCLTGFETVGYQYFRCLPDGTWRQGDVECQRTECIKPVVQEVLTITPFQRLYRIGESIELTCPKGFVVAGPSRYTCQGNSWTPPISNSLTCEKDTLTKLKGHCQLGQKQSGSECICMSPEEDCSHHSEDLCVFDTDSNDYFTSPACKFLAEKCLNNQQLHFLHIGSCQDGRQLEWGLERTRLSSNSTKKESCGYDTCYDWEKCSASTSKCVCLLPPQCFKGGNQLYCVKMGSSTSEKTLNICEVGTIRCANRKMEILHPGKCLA
human complement protein C5, sequence (P01031 19-673 limits assumed, chain 1 of 2): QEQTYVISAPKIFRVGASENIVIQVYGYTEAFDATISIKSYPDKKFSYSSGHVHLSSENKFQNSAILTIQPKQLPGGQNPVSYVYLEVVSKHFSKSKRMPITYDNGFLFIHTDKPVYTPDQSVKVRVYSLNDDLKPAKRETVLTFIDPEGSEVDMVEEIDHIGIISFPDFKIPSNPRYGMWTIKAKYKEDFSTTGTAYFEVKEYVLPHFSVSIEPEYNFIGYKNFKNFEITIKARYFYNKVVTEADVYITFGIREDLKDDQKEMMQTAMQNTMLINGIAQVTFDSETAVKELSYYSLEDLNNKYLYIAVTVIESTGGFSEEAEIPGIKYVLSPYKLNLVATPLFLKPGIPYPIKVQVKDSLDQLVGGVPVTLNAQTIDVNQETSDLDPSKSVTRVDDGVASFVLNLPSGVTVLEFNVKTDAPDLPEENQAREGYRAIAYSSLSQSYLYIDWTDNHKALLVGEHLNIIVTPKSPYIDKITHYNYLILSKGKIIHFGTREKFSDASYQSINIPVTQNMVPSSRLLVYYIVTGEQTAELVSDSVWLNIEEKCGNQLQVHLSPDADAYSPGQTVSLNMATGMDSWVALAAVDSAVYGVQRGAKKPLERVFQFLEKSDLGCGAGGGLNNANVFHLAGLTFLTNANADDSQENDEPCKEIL
human complement protein C5, sequence (P01031 678-1676 limits assumed, chain 2 of 2): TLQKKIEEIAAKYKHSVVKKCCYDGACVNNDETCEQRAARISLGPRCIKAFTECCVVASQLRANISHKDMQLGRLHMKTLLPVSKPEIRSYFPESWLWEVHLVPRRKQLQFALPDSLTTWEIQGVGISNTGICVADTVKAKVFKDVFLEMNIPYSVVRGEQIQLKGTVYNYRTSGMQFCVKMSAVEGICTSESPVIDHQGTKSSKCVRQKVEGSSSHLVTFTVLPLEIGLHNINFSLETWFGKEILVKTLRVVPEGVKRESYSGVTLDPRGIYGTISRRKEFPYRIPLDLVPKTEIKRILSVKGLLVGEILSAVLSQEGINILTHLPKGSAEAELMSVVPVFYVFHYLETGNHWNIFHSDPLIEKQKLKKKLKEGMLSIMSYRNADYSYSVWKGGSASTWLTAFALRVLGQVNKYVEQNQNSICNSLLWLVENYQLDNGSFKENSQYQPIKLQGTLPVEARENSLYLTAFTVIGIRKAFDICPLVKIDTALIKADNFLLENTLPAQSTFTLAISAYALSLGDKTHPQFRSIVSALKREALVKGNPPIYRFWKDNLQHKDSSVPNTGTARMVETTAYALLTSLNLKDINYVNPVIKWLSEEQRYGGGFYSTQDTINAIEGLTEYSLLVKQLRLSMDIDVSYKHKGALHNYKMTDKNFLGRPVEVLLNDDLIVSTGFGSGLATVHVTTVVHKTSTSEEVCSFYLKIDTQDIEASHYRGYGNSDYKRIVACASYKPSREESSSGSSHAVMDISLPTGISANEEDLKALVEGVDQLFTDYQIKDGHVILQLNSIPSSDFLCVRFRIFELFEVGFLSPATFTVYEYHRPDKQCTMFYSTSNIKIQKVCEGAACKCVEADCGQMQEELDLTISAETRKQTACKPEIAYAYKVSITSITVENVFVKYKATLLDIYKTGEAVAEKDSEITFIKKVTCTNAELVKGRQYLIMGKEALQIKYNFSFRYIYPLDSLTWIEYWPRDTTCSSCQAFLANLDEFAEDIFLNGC

Binder | EC50 [1] | EC50 [2] | Kd [3] | koff [3] | kon [3] | EC50 [4] | EC50 [5] | EC50 [6] | binding result [7] | EC50 [8] | EC50 [9]
MoC601 HuG4K (chimeric C601 antibody) (antibody, human IgG4 S228P, kappa, V domains shown, also called chimeric antibody; chimeric 1C9) VH: QVQLQQSGAELVKPGASVKISCKASGYAFSDYWMNWVKQRPGKGLEWIGQIYPGDDDTNYNGKFKGKATLTADKSSSTAYMQLSSLTSEDSAVYFCAREGYYGYTYVEYFDVWGTGTTVTVSS VL: QIVLTQSPAIMSVSPGEKVTLTCSASSSVSYMHWYQQKSGTSPKRWIYDTSKLASGVPARFSGSGSGTSYSLTISSMEAEDAATYYCQQWTSNPLTFGAGTKLELRR | 180 pM | 150 pM | 360 pM | 0.00025 s⁻¹ | 690000 M⁻¹ s⁻¹ | 430 pM | 190 pM | 30 pM | no binding |  | 
C601HFKC4 HuG4K (antibody, human IgG4 S228P, kappa, also called 3713; clone 3713) heavy: not shown light: QIVLTQSPATLSLSPGERATLSCRASSSVSYLHWYQQKPGQSPRLWIYDTSKRATGIPARFSGSGSGTDYTLTISSLEPEDFAVYYCQQWTSNPLTFGQGTKLEIKRTVAAPSVFIFPPSDEQLKSGTASVVCLLNNFYPREAKVQWKVDNALQSGNSQESVTEQDSKDSTYSLSSTLTLSKADYEKHKVYACEVTHQGLSSPVTKSFNRGEC |  |  |  |  |  |  |  |  |  | 190 pM | 170 pM

Reference: US20260125455A1 (CLEVELAND CLINIC FOUNDATION, published 2026)
